The target of assay [1] is membrane-bound single-chain I-A^d-OVA (SCT1 gene, with the alpha chain transmembrane domain) on transfected NS-0 cells (mouse (I-A^d); chicken (OVA peptide)). In words: flow cytometry, FITC-conjugated AMS 32.1 1:100, T6 (SCT1-transfectant) cells. (A flow cytometer gives signals particle by particle.)
The target in assay [2] is soluble single-chain I-A^d-OVA (SSC1 gene; 6xHis tag), produced in SF9 insect cells (mouse (I-A^d); chicken (OVA peptide)). The assay is described as follows: sandwich I-A^d ELISA, M5/114 capture, biotinylated AMS-32.1 probe, 405 nm; cotransfection supernatant diluted 1:4.
The target is the same in assay [3]. In words: sandwich I-A^d ELISA, M5/114 capture, biotinylated AMS-32.1 probe, 405 nm; cotransfection supernatant diluted 1:8. (In general: An ELISA detects its analyte on a solid surface through an enzyme-linked reagent.)
Assay [4] deals with membrane-bound single-chain I-A^d-OVA (SCT1 gene, with the alpha chain transmembrane domain) on transfected NS-0 cells (mouse (I-A^d); chicken (OVA peptide)). In words: flow cytometry, FITC-conjugated AMS 32.1 1:100, T2 (SCT1-transfectant) cells.
Assay [5] has as its target soluble single-chain I-A^d-OVA with EE antibody tag (SCE1 gene), secreted by transfected NSO cells (mouse (I-A^d); chicken (OVA peptide)). In words: sandwich I-A^d ELISA of Example 18 (M5/114 capture, biotinylated AMS-32.1 probe); undiluted supernatant of E10 (SCE1 transfectant).
In assay [6] the target is soluble single-chain I-A^d-OVA (SSC1 gene; 6xHis tag), produced in SF9 insect cells (mouse (I-A^d); chicken (OVA peptide)). In words: sandwich I-A^d ELISA, M5/114 capture, biotinylated AMS-32.1 probe; supernatant of virus clone F8.
The target of assay [7] is Neuron Specific Enolase (NSE), in supernatant of SF9 cells infected with a recombinant Baculovirus. In words: sandwich I-A^d ELISA, M5/114 capture, biotinylated AMS-32.1 probe; supernatant of SF9 cells infected with NSE Baculovirus.
Assay [8] has as its target soluble single-chain I-A^d-OVA (SSC1 gene; 6xHis tag), produced in SF9 insect cells (mouse (I-A^d); chicken (OVA peptide)). In words: sandwich I-A^d ELISA, M5/114 capture, biotinylated AMS-32.1 probe, 405 nm; cotransfection supernatant undiluted.
The target is the same in assay [9]. In words: sandwich I-A^d ELISA of Example 18 (M5/114 capture, biotinylated AMS-32.1 probe); sc I-A^d-OVA from insect cell culture (positive control).
The target is the same in assay [10]. In words: sandwich I-A^d ELISA, M5/114 capture, biotinylated AMS-32.1 probe, 405 nm; cotransfection supernatant diluted 1:2.
Assay [11] has the same target. In words: sandwich I-A^d ELISA, M5/114 capture, biotinylated AMS-32.1 probe; supernatant of virus clone C6.
Assay [12] concerns the target membrane-bound single-chain I-A^d-OVA (SCT1 gene, with the alpha chain transmembrane domain) on transfected NS-0 cells (mouse (I-A^d); chicken (OVA peptide)). In words: flow cytometry, FITC-conjugated AMS 32.1 1:100, T12 (SCT1-transfectant) cells.
Assay [13] deals with soluble single-chain I-A^d-OVA with EE antibody tag (SCE1 gene), secreted by transfected NSO cells (mouse (I-A^d); chicken (OVA peptide)). In words: sandwich I-A^d ELISA of Example 18 (M5/114 capture, biotinylated AMS-32.1 probe); undiluted supernatant of E11 (SCE1 transfectant).
Assay [14] concerns the target full-length murine I-A^d/OVA 323-339 MHC class II fusion complex (pJRS165.1) expressed on NSO cells (mouse; chicken) (UniProt P04228). In words: flow cytometry, FITC-conjugated isotype matched irrelevant antibody 1:100, clone NSO/IA^d/OVA.A4.
The target is the same in assay [15]. In words: flow cytometry, FITC-conjugated isotype matched irrelevant antibody 1:100, clone NSO/IA^d/OVA.B5.
The target is the same in assay [16]. In words: flow cytometry, FITC-conjugated isotype matched irrelevant antibody 1:100, clone NSO/IA^d/OVA.B2.
Assay [17] shares this target. In words: flow cytometry, FITC-conjugated isotype matched irrelevant antibody 1:100, clone NSO/IA^d/OVA.B4.
In assay [18] the target is murine class II MHC molecule I-A^d on A20.1-11 cells (mouse) (UniProt P04228). In words: flow cytometry, FITC-conjugated isotype matched irrelevant antibody 1:100, A20.1 cells (+ control).
Assay [19] deals with membrane-bound single-chain I-A^d-OVA (SCT1 gene, with the alpha chain transmembrane domain) on transfected NS-0 cells (mouse (I-A^d); chicken (OVA peptide)). The assay is described as follows: flow cytometry, FITC-conjugated 10-3.6 1:100 (negative control), T6 (SCT1-transfectant) cells.
Assay [20] shares this target. The assay is described as follows: flow cytometry, FITC-conjugated 10-3.6 1:100 (negative control), T12 (SCT1-transfectant) cells.
The target is the same in assay [21]. In words: flow cytometry, FITC-conjugated 10-3.6 1:100 (negative control), T2 (SCT1-transfectant) cells.
For assay [22], the target named is T cell receptor of the murine T cell hybridoma DO11.10 (specific for OVA 323-339 in the context of I-A^d) (mouse). In words: cell-based or functional assay.

The results in this text go back to patent publication US7141656.

In the case of “AMS-32.1 anti-IA^d monoclonal antibody (PharMingen)”, the Mean Fluorescence was determined as 418 in assay [1], 613 in [4] and 911 in assay [12]. Moreover, the Absorbance in assay [2] is 0.305; in [3], 0.165; in [5], 0.781; in assay [6], 1.45; in assay [7], 0.098; in [8], 0.857. The Absorbance in assay [9] is 2.44; in assay [10], 0.524; in assay [11], 1.56; in assay [13], 0.96.

As to “FITC-conjugated anti-IA^k antibody (Pharmingen), isotype matched irrelevant antibody, Example 13”, the peak channel fluorescence in assay [14] stood at 34; in [15] it was 10; in assay [16] it was 14; in assay [17], 11; in [18], 5.

Take “10-3.6 anti-I-A^k antibody (PharMingen), isotype matched negative control”: the Mean Fluorescence in assay [19] came to 45.1; in assay [20] it was 45.9; in assay [21], 22.

B1: soluble single-chain I-A^d-OVA (SSC1 gene; 6xHis tag), produced in SF9 insect cells (peptide-MHC)
chain: TMALQIPSLLLSAAVVVLMVLSSPRTLSISQAVHAAHAEINEAGRASGGGGSGGGGNSERHFVVQFKGECYYTNGTQRIRLVTRYIYNREEYVRYDSDVGEYRAVTELGRPDAEYWNSQPEILERTRAEVDTACRHNYEGPETSTSLRRLEQPNVAISLSRTEALNHHNTLVCSVTDFYPAKIKVRWFRNGQEETVGVSSTQLIRNGDWTFQVLVMLEMTPHQGEVYTCHVEHPSLKSPITVEWTSGGGGSGGGGSGGGGSGGGGSSSEDDIEADHVGFYGTTVYQSPGDIGQYTHEFDGDELFYVDLDKKKTVWRLPEFGQLILFEPQGGLQNIAAEKHNLGILTKRSNFTPATNEAPQATVFPKSPVLLGQPNTLICFVDNIFPPVINITWLRNSKSVTDGVYETSFLVNRDHSFHKLSYLTFIPSDDDIYDCKVEHWGLEEPVLKHWSRASHHHHHH
B1: in [22], the IL-2 concentration in DO11 super (U/ml) at 39 ng/well immobilized scIA^d-OVA, extended dilution turned out to be 0 U/ml; the IL-2 concentration in DO11 super (U/ml) at 78 ng/well immobilized sc IA^d-OVA was 45 U/ml; the IL-2 concentration in DO11 super (U/ml) at 78 ng/well immobilized scIA^d-OVA, extended dilution was determined as 17 U/ml; the IL-2 concentration in DO11 super (U/ml) at 156 ng/well immobilized sc IA^d-OVA worked out at 100 U/ml. Moreover, in assay [22], the IL-2 concentration in DO11 super (U/ml) at 156 ng/well immobilized scIA^d-OVA, extended dilution turned out to be 24 U/ml; the IL-2 concentration in DO11 super (U/ml) at 312 ng/well immobilized sc IA^d-OVA was 109 U/ml; the IL-2 concentration in DO11 super (U/ml) at 312 ng/well immobilized scIA^d-OVA, extended dilution amounted to 35 U/ml; the IL-2 concentration in DO11 super (U/ml) at 625 ng/well immobilized sc IA^d-OVA was found to be 116 U/ml. In assay [22], this molecule showed an IL-2 concentration in DO11 super (U/ml) at 625 ng/well immobilized scIA^d-OVA, extended dilution of 38 U/ml; an IL-2 concentration in DO11 super (U/ml) at 1250 ng/well immobilized sc IA^d-OVA of 126 U/ml; an IL-2 concentration in DO11 super (U/ml) at 2500 ng/well immobilized sc IA^d-OVA of 143 U/ml; an IL-4 concentration in DO11 super (U/ml) at 78 ng/well immobilized sc IA^d-OVA of 7 U/ml. In [22], this molecule came in with an IL-4 concentration in DO11 super (U/ml) at 156 ng/well immobilized sc IA^d-OVA of 10 U/ml, an IL-4 concentration in DO11 super (U/ml) at 312 ng/well immobilized sc IA^d-OVA of 16 U/ml, an IL-4 concentration in DO11 super (U/ml) at 625 ng/well immobilized sc IA^d-OVA of 15 U/ml and an IL-4 concentration in DO11 super (U/ml) at 1250 ng/well immobilized sc IA^d-OVA of 20 U/ml. In assay [22], this molecule yielded an IL-4 concentration in DO11 super (U/ml) at 2500 ng/well immobilized sc IA^d-OVA of 23 U/ml; an IL-r [IL-4] concentration in DO11 super (U/ml) at 39 ng/well immobilized scIA^d-OVA, extended dilution of 0 U/ml; an IL-r [IL-4] concentration in DO11 super (U/ml) at 78 ng/well immobilized scIA^d-OVA, extended dilution of 0.8 U/ml; an IL-r [IL-4] concentration in DO11 super (U/ml) at 156 ng/well immobilized scIA^d-OVA, extended dilution of 0.9 U/ml. In [22], this molecule returned an IL-r [IL-4] concentration in DO11 super (U/ml) at 312 ng/well immobilized scIA^d-OVA, extended dilution of 1.5 U/ml and an IL-r [IL-4] concentration in DO11 super (U/ml) at 625 ng/well immobilized scIA^d-OVA, extended dilution of 2 U/ml.

B2: membrane-bound single-chain I-A^d-OVA (SCT1 gene, with the alpha chain transmembrane domain) on transfected NS-0 cells (peptide-MHC)
chain: TMALQIPSLLLSAAVVVLMVLSSPRTLSISQAVHAAHAEINEAGRASGGGGSGGGGNSERHFVVQFKGECYYTNGTQRIRLVTRYIYNREEYVRYDSDVGEYRAVTELGRPDAEYWNSQPEILERTRAEVDTACRHNYEGPETSTSLRRLEQPNVAISLSRTEALNHHNTLVCSVTDFYPAKIKVRWFRNGQEETVGVSSTQLIRNGDWTFQVLVMLEMTPHQGEVYTCHVEHPSLKSPITVEWTSGGGGSGGGGSGGGGSGGGGSSSEDDIEADHVGFYGTTVYQSPGDIGQYTHEFDGDELFYVDLDKKKTVWRLPEFGQLILFEPQGGLQNIAAEKHNLGILTKRSNFTPATNEAPQATVFPKSPVLLGQPNTLICFVDNIFPPVINITWLRNSKSVTDGVYETSFLVNRDHSFHKLSYLTFIPSDDDIYDCKVEHWGLEEPVLKHWEPEIPAPMSELTETVVCALGLSVGLVGIVVGTIFIIQGLRSGGTSRHPGPL
In [22], B2 returned an IL-2 ELISA result (Absorbance), DO11.10 with T2 (SCT1 transfectant) cells of 0.758; an IL-2 ELISA result (Absorbance), DO11.10 with T6 (SCT1 transfectant) cells of 0.307; an IL-2 ELISA result (Absorbance), DO11.10 with T12 (SCT1 transfectant) cells of 1.03.
